The test deals with T1, Saccharomyces cerevisiae Rat1-Rai1 complex (Saccharomyces cerevisiae, UniProt Q02792 1-981; P53063 1-387).
T1 sequence (looked up) 1: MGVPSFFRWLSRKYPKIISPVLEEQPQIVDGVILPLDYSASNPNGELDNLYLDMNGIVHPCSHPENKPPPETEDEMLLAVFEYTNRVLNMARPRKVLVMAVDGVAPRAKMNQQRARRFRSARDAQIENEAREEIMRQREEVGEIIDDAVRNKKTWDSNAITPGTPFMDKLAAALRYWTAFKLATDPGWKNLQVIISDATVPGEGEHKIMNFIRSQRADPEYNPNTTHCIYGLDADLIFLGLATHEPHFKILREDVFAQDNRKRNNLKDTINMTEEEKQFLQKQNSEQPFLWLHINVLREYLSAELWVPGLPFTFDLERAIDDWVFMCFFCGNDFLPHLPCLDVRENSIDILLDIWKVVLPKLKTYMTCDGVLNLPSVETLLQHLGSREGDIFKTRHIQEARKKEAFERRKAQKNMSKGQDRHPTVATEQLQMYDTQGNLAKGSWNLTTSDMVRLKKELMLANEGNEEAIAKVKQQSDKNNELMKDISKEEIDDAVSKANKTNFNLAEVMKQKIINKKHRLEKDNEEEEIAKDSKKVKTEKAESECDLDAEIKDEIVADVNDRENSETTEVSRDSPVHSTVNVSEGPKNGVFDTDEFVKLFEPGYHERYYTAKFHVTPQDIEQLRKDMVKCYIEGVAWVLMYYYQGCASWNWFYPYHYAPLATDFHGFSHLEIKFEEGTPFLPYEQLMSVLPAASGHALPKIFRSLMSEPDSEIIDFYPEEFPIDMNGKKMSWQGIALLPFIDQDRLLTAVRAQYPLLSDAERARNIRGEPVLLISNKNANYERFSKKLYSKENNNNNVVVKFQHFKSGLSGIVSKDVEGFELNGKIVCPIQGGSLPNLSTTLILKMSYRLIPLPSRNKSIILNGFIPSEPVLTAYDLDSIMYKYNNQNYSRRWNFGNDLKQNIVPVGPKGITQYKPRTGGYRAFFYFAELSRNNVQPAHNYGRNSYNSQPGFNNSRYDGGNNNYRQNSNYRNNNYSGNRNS
T1 sequence (looked up) 2: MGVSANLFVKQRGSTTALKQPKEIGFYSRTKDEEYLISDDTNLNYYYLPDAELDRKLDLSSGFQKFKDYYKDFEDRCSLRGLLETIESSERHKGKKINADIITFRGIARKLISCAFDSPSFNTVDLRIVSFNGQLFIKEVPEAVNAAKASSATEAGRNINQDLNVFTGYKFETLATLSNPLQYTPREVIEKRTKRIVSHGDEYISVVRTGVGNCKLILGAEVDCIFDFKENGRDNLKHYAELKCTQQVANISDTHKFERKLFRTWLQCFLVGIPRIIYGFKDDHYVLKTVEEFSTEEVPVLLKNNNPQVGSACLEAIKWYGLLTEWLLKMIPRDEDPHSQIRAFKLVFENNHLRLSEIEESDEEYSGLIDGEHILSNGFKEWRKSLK
Kind of test: pull-down.

B1: N-terminal 6×His-MBP tagged S. cerevisiae Rtt103 RIS (243-272) wild-type (domain or fragment, Saccharomyces cerevisiae, UniProt Q05543 243-272, looked up)
chain: SAKDPSRLNKNVDEDNIIPTYEVGDGDDDD
In the case of B1, the binding result is on record as “binds”.

The values above are taken from paper PMC11972402 (Nature Communications, 2025).
